Laboratory results: paper PMC11497264, “SARS‐CoV‐2 Spike Protein‐Derived Cyclic Peptides as Modulators of Spike Interaction with GRP78” (Chembiochem, 2024)
Bridge positions count the residues as written; N and C are the ends.

B1: human glucose-regulated protein GRP78 (natural protein)
chain: not shown
notes: also called heat shock protein A5; HSPA5; source: Escherichia coli, recombinant; bought: Abcam
B2: Pep42, 13-mer cyclopeptide (peptide)
peptide: H-CTVALPGGYVRVC-NH2
modifications: disulfide 1-13
SMILES: CC(C)C[C@@H]1NC(=O)[C@H](C)NC(=O)[C@H](C(C)C)NC(=O)[C@H]([C@@H](C)O)NC(=O)[C@@H](N)CSSC[C@@H](C(N)=O)NC(=O)[C@H](C(C)C)NC(=O)[C@H](CCCNC(=N)N)NC(=O)[C@H](C(C)C)NC(=O)[C@H](Cc2ccc(O)cc2)NC(=O)CNC(=O)CNC(=O)[C@@H]2CCCN2C1=O
notes: source: synthetic peptide (Fmoc SPPS, disulphide cyclisation with DMSO, HPLC purified)

Assays:
[1] = biological target: T1, S1 subunit (aa 14-685) of the spike protein of SARS-CoV-2 (SARS-CoV-2, UniProt P0DTC2 14-685); experiment: SPR; conditions: both partners purified
T1 construct: also called soluble S1; wild-type S1 protein

[2] = biological target: B1; experiment: SPR; conditions: both partners purified

## B1
[1]
  KD in the presence of 12.5 uM LCP O: 751 nM
  KD in the presence of 12.5 uM LCP W: 137 nM

## B2
[2]
  IC50: 5900 nM
  Kd: 3400 nM
